Reference: patent US20260242478A1 (published 2026)
Where no end group is shown, it is not given here.

B1: Phage-1722 (peptide)
peptide: TCLRFADLAIIHCD
modifications: cysteine pairing not given here; also: displayed on phage as pIII fusion, pIII sequence, linker and fusion order not given here
notes: also called Peptide-160; not shown: pIII coat protein of the bacteriophage to which the peptide is fused
B2: Phage-1804 (peptide)
peptide: ITPVCKPLWMCSGL
notes: tested as clonal phage supernatant
B3: Phage-1694 (peptide)
peptide: TCAAGATYDWPSCL
B4: Phage-1716 (peptide)
peptide: IECAYMTDQRFWCW
modifications: cysteine pairing not given here; also: fused to phage pIII (clonal phage display)
notes: not shown: pIII coat protein of the bacteriophage to which the peptide is fused
B5: Phage-1696 (peptide)
peptide: PCSAGATYAWPYCL
B6: Phage-1718 (peptide)
peptide: SCGWLRGEEFGWWC
modifications: cysteine pairing not given here; also: displayed on phage as pIII fusion, pIII sequence, linker and fusion order not given here
notes: also called Peptide-190; not shown: pIII coat protein of the bacteriophage to which the peptide is fused
B7: Phage-1803 (peptide)
peptide: LEPLCVPRWMCVGF
notes: as for B2
B8: Phage-1692 (peptide)
peptide: ICAAGAGWPWPWCL
B9: Phage-1709 (peptide)
peptide: PELRCVPFWMCSFN
modifications: cysteine pairing not given here; also: fused to phage pIII (clonal phage display)
notes: as for B4
B10: Phage-1700 (peptide)
peptide: TCSAGAQWEWPACL
B11: Phage-1698 (peptide)
peptide: GCAAGAEYNWPTCL
B12: Phage-1710 (peptide)
peptide: SIPCIPRDWLCPIK
modifications: cysteine pairing not given here; also: displayed as fusion to phage pIII, linker and order of fusion not given here
notes: as for B4
B13: Phage-1721 (peptide)
peptide: SCFSFARLEVVPCD
modifications: cysteine pairing not given here; also: displayed on phage as pIII fusion, pIII sequence, linker and fusion order not given here
notes: as for B4
B14: Phage-1699 (peptide)
peptide: TCAAGAAYTWPHCF
B15: Phage-1805 (peptide)
peptide: VEVKCFPLWFCVGL
notes: as for B2
B16: Phage-1717 (peptide)
peptide: HCLGPALGPVDGDC
modifications: cysteine pairing not given here; also: displayed on phage as pIII fusion, pIII sequence, linker and fusion order not given here
notes: as for B4
B17: Phage-1719 (peptide)
peptide: DCFYAADIHWNYCN
modifications: cysteine pairing not given here; also: displayed on phage as pIII fusion, pIII sequence, linker and fusion order not given here
notes: as for B4
B18: Phage-1714 (peptide)
peptide: FVCWTFGEHIKVCR
modifications: cysteine pairing not given here; also: displayed on phage as pIII fusion, pIII sequence, linker and fusion order not given here
notes: as for B4
B19: Phage-1702 (peptide)
peptide: SCSAGASYAWPMCI
B20: Phage-1695 (peptide)
peptide: TCAAGAVWQWPTCF
B21: Phage-1712 (peptide)
peptide: IRCVGEGHDLVCIF
modifications: cysteine pairing not given here; also: displayed on phage as pIII fusion, pIII sequence, linker and fusion order not given here
notes: as for B4
B22: Phage-1693 (peptide)
peptide: ECSAGAMWGWPACF
B23: Phage-1708 (peptide)
peptide: IAVLCQPNWMCAGF
modifications: cysteine pairing not given here; also: fused to phage pIII (clonal phage display)
notes: also called Peptide-180; not shown: pIII coat protein of the bacteriophage to which the peptide is fused
B24: Phage-1707 (peptide)
peptide: LMKWCTPRWMCAAE
modifications: cysteine pairing not given here; also: fused to phage pIII (clonal phage display)
notes: as for B4
B25: Phage-1701 (peptide)
peptide: WCSAVFSYQWPVCL
B26: Phage-1703 (peptide)
peptide: DCWWDSPYHWRVCL
B27: Phage-1711 (peptide)
peptide: MEYCSFHRFTCVLW
modifications: cysteine pairing not given here; also: displayed on phage as pIII fusion, pIII sequence, linker and fusion order not given here
notes: as for B4
B28: Phage-1715 (peptide)
peptide: ILCGLYEALVSECG
modifications: cysteine pairing not given here; also: displayed on phage as pIII fusion, pIII sequence, linker and fusion order not given here
notes: as for B4
B29: Phage-1691 (peptide)
peptide: TCSAGATYGWPACF
B30: Phage-1690 (peptide)
peptide: TCSAGATYKWPMCF
B31: Phage-1697 (peptide)
peptide: TCAAGAQLEWPWCF

How the values were obtained:
[1] = biological target: T1, Anti-PSMA Fab (SEQ ID NOs: 19, 20); assay: phage binding ELISA; biotinylated anti-PSMA Fab on neutravidin plate, clonal phage supernatant, anti-M13-HRP detection
T1 construct: Used biotinylated and captured on neutravidin coated plates; also called 006 PSMA Fab
Protocol: (§1) Clonal phage were harvested as crude supernatants and screened via standard ELISAs. […] Prior to the addition of clonal phage. wells were incubated with blocking buffer and PSMA antigen or blocking buffer alone. Without washing or aspirating, clonal phage supernatants were then added to the wells and incubated for a short time. Wells were then washed followed by detection of bound phage using a horse radish conjugated anti-M13 antibody.

[2] = biological target: T1, Anti-PSMA Fab (SEQ ID NOs: 19, 20); assay: phage binding ELISA; biotinylated anti-PSMA Fab on neutravidin plate, wells pre-incubated with PSMA antigen as competitor, anti-M13-HRP detection
Protocol: as §1

[3] = biological target: T2, Anti-PSMA Fab (SEQ ID NOs: 19, 20); assay: phage binding ELISA; biotinylated PSMA Fab on neutravidin plate, clonal phage supernatant, anti-M13 HRP detection;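 further: wells were preincubated with blocking buffer either containing PSMA antigen or without it before crude phage supernatant was added, briefly incubated, then washed prior to detection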
T2 construct: also called 006 PSMA Fab
Protocol: as §1

[4] = biological target: T2, Anti-PSMA Fab (SEQ ID NOs: 19, 20); assay: phage binding ELISA; PSMA Fab coated wells pre-incubated with PSMA antigen as competitor, anti-M13 HRP detection
Protocol: as §1

[5] = biological target: T3, Anti-CD28 Fab (SEQ ID NOs: 696, 697); assay: phage binding ELISA; biotinylated anti-CD28 Fab on neutravidin plate, clonal phage supernatant, anti-M13 HRP detection;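 further: wells pretreated with blocking buffer, either plus or minus CD28 antigen, then given crude phage supernatant briefly without washing in between, then washed before anti-M13 HRP readout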
T3 construct: In the phage ELISA the Fab was biotinylated and captured on neutravidin coated plates
Protocol: (§2) Clonal phage were harvested as crude supematants and screened via standard ELISAs. […] Prior to the addition of clonal phage, wells were incubated with blocking buffer and CD28 antigen or blocking buffer alone. Without washing or aspirating, clonal phage supematants were then added to the wells and incubated for a short time. Wells were then washed followed by detection of bound phage using a horse radish conjugated anti-M13 antibody.

[6] = biological target: T3, Anti-CD28 Fab (SEQ ID NOs: 696, 697); assay: phage binding ELISA on plate-captured anti-CD28 Fab pre-incubated with CD28 antigen (competitor: CD28), anti-M13 HRP detection
Protocol: as §2

T3 sequence (VH, as listed by the source, chain 1 of 2): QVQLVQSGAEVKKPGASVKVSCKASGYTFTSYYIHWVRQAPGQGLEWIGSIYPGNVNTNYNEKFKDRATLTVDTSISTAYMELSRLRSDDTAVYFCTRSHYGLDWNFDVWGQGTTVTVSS
T3 sequence (VL, as listed by the source, chain 2 of 2): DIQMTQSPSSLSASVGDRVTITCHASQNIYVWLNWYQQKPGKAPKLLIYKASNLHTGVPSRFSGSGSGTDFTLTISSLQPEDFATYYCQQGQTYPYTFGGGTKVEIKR

| Binder | Anti-PSMA Fab (SEQ ID NOs: 19, 20) signal [1] | Anti-PSMA Fab signal in the presence of PSMA [2] | Phage binding ELISA, Anti-CD28 Fab signal [5] | Phage binding ELISA, Anti-CD28 Fab signal in the presence of CD28 [6] | further results |
| --- | --- | --- | --- | --- | --- |
| B1 | 1.82 | 0.0697 | – | – | – |
| B2 | – | – | – | – | Anti-PSMA Fab (SEQ ID NOs: 19, 20) signal [3]: 2.35; Anti-PSMA Fab signal in the presence of PSMA [4]: 0.0764 |
| B3 | – | – | 0.71 | 0.08 | – |
| B4 | 1.93 | 0.066 | – | – | – |
| B5 | – | – | 0.71 | 0.09 | – |
| B6 | 0.648 | 0.071 | – | – | – |
| B7 | – | – | – | – | Anti-PSMA Fab (SEQ ID NOs: 19, 20) signal [3]: 2.36; Anti-PSMA Fab signal in the presence of PSMA [4]: 0.112 |
| B8 | – | – | 0.75 | 0.1 | – |
| B9 | 0.622 | 0.064 | – | – | – |
| B10 | – | – | 0.67 | 0.08 | – |
| B11 | – | – | 0.69 | 0.64 | – |
| B12 | 1.89 | 0.096 | – | – | – |
| B13 | 1.26 | 0.0555 | – | – | – |
| B14 | – | – | 0.69 | 0.11 | – |
| B15 | – | – | – | – | Anti-PSMA Fab (SEQ ID NOs: 19, 20) signal [3]: 2.23; Anti-PSMA Fab signal in the presence of PSMA [4]: 0.0923 |
| B16 | 2.33 | 0.076 | – | – | – |

| Binder | Anti-PSMA Fab (SEQ ID NOs: 19, 20) signal [1] | Anti-PSMA Fab signal in the presence of PSMA [2] | Phage binding ELISA, Anti-CD28 Fab signal [5] | Phage binding ELISA, Anti-CD28 Fab signal in the presence of CD28 [6] | further results |
| --- | --- | --- | --- | --- | --- |
| B17 | 1.88 | 1.15 | – | – | – |
| B18 | 2.51 | 0.205 | – | – | – |
| B19 | – | – | 0.59 | 0.06 | – |
| B20 | – | – | 0.71 | 0.06 | – |
| B21 | 2.36 | 0.072 | – | – | – |
| B22 | – | – | 0.73 | 0.09 | – |
| B23 | 0.997 | 0.077 | – | – | – |
| B24 | 1.04 | 0.232 | – | – | – |
| B25 | – | – | 0.61 | 0.06 | – |
| B26 | – | – | 0.57 | 0.07 | – |
| B27 | 1.88 | 0.117 | – | – | – |
| B28 | 2.49 | 0.063 | – | – | – |
| B29 | – | – | 0.76 | 0.07 | – |
| B30 | – | – | 0.77 | 0.07 | – |
| B31 | – | – | 0.7 | 0.07 | – |
